Reference: patent US20250109209A1

Columns and labels:
human TL1A (human) [1] = molecular target: human TL1A (human) (UniProt O95150); test: selectivity ELISA: antibody pre-incubated with TL1A, inhibition of TL1A binding to plate-coated DR3
human TL1A (human) [2] = molecular target: human TL1A (human) (UniProt O95150); test: selectivity ELISA: antibody pre-incubated with TL1A, inhibition of TL1A binding to plate-coated DcR3
mouse TL1A (mouse) = mouse TL1A (mouse) (UniProt Q5UBV8); test: SPR, mAb format, average
Cyno TL1A (cyno) [3] = molecular target: Cyno TL1A (cyno) (UniProt G7PRK8); test: SPR, mAb format, average
human TL1A (human) [4] = molecular target: human TL1A (human) (UniProt O95150); test: SPR, mAb format, average
Cyno TL1A (cyno) [5] = molecular target: Cyno TL1A (cyno) (UniProt G7PRK8); test: SPR, representative sensorgram with Cyno TL1A
human TL1A (human) [6] = molecular target: human TL1A (human) (UniProt O95150); test: SPR, representative sensorgram with Human TL1A

Sequence of human TL1A (human) (O95150 72-251 limits assumed): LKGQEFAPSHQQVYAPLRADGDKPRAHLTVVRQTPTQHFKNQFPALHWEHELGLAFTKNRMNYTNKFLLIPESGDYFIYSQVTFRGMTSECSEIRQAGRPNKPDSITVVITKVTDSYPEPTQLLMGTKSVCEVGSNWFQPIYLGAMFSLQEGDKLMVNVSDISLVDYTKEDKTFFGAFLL
Sequence of Cyno TL1A (cyno) (G7PRK8 entry or part of it): as the sequence (O95150 72-251 limits assumed) above, with F39L, I78V counted along it
Sequence of mouse TL1A (mouse) (Q5UBV8 76-252 V180M/M218T limits assumed): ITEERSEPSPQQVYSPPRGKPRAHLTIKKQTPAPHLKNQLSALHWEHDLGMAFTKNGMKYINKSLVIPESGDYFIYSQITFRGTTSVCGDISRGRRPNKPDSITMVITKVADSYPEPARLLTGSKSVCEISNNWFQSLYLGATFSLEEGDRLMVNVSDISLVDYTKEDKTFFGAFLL

- IC50 (human TL1A (human) [1]): 6.3 µg/mL
- IC50 (human TL1A (human) [2]): 3.6 µg/mL
- Kd (mouse TL1A (mouse)): 81900 nM
- Kd (Cyno TL1A (cyno) [3]): 0.09 nM
- Kd (human TL1A (human) [4]): 0.365 nM
- Kd (Cyno TL1A (cyno) [5]): 0.114 nM
- Kd (human TL1A (human) [6]): 0.339 nM
B1: Heron2B (antibody, INN chains, looked up, V domains shown)
VH: QVQLVQSGAEVKKPGASVKVSCKASGFDIQDTYMHWVKQRPGQGLEWMGRIDPASGHTKYDPKFQVRVTITRDTSTSTVYLELSSLRSEDTAVYYCARSGGLPDVWGQGTTVTVSS
VL: EIVLTQSPGTLSLSPGERATLSCRASSSVSYMYWYQQKPGQAPRPLIYATSNLASGIPDRFSGSGSGTDFTLTISRLEPEDFAVYYCQQWEGNPRTFGGGTKLEIK
